Where a chain is given by its changes, count along the chain named. Where “and” joins values, the source holds several entries; their conditions need not be identical. Identical values can stand only once.
B1: murine monoclonal antibody IC8 (antibody, V domains shown)
VH: DVQLVESGGGLVKPGGSLKLSCAASGFDFSRYDMSWVRQTPEKRLEWVAYISSGGGSTYFPDTVKGRFTISRDNAKNTLYLQMNNLQSEDTAMFYCARQNKKLTWFDYWGQGTLVTVSS
VL: DIQMTQSPASLSASVGETVTITCRTSGNIHNYLTWYQQNLGKSPQLLVYNAKTLADGVPSRFSGSGSGTQFSLTINSLQPEDFGNYYCQHFWSLPFTFGSGTKLEIKR
notes: Mouse monoclonal antibody from a hybridoma; also called mIC8; donor antibody
B2: CDR-grafted IC8 antibody gH1gL2 (antibody, V domains shown)
VH: B1 VH with D1E, K13Q, K19R, T40A, E42G, N85S, Q87R, S88A, F94Y
VL: DIQMTQSPSSLSASVGDRVTITCRTSGNIHNYLTWYQQKPGKAPQLLVYNAKTLADGVPSRFSGSGSGTQFTLTISSLQPEDFANYYCQHFWSLPFTFGQGTKVEIKR
notes: Human gamma-4 heavy and kappa light constant regions (pMRR14 and pMRR10), expressed in CHO-L761 cells
B3: CDR-grafted IC8 antibody gH1gL1 (antibody, V domains shown)
VH: B1 VH with D1E, K13Q, K19R, T40A, E42G, N85S, Q87R, S88A, F94Y
VL: B2 VL with P40L
notes: as for B2
B4: CDR-grafted IC8 antibody gH1gL3 (antibody, V domains shown)
VH: B1 VH with D1E, K13Q, K19R, T40A, E42G, N85S, Q87R, S88A, F94Y
VL: B2 VL with V48I
notes: as for B2
B5: CDR-grafted IC8 antibody gH2gL1 (antibody, V domains shown)
VH: B1 VH with D1E, K13Q, K19R, T40A, E42G, R44G, N85S, Q87R, S88A, F94Y
VL: B2 VL with P40L
notes: as for B2
B6: CDR-grafted IC8 antibody gH2gL3 (antibody, V domains shown)
VH: B1 VH with D1E, K13Q, K19R, T40A, E42G, R44G, N85S, Q87R, S88A, F94Y
VL: B2 VL with V48I
notes: as for B2
B7: CDR-grafted IC8 antibody gH3gL1 (antibody, V domains shown)
VH: B1 VH with D1E, K13Q, K19R, T40A, E42G, N85S, Q87R, S88A, M93V, F94Y
VL: B2 VL with P40L
notes: as for B2
B8: CDR-grafted IC8 antibody gH3gL2 (antibody, V domains shown)
VH: B1 VH with D1E, K13Q, K19R, T40A, E42G, N85S, Q87R, S88A, M93V, F94Y
VL: B2 VL
notes: as for B2
B9: CDR-grafted IC8 antibody gH3gL3 (antibody, V domains shown)
VH: B1 VH with D1E, K13Q, K19R, T40A, E42G, N85S, Q87R, S88A, M93V, F94Y
VL: B2 VL with V48I
notes: Human gamma-4 heavy and kappa light constant regions (pMRR14 and pMRR10), expressed in CHO-L761 cells; also called gL3gH3
B10: gH3gL3 Fab′ (E. coli-produced) (Fab, V domains shown)
VH: B1 VH with D1E, K13Q, K19R, T40A, E42G, N85S, Q87R, S88A, M93V, F94Y
VL: B2 VL with V48I
notes: Unpegylated Fab′ with a modified hinge, purified from E. coli periplasm; also called gIC8 Fab′; IC8gL3gH3 Fab′
B11: double chimeric IC8 antibody molecule cHcL (antibody, V domains shown)
VH: B1 VH
VL: B1 VL
notes: Murine IC8 V-regions on human gamma-4 heavy and human kappa light constant regions (vectors pMRR14 and pMRR10), expressed in CHO-L761 cells

Assays:
recombinant human IL-1β [1] = target: T1, recombinant human IL-1β (human, UniProt P01584 117-269); test: BIAcore, captured antibody, IL-1β titrated in solution, 25 °C
T1 construct: Only the background speaks of the mature 17 kDa form; also called hIL-1β; interleukin-1β

recombinant human IL-1β [2] = target: T1, recombinant human IL-1β; test: BIAcore, antibody captured by anti-hFc, IL-1β titrated in solution, 25 °C
Protocol: The assay format used anti-IL-1β antibody captured by anti-hFc with a titration of recombinant human IL-1β in the solution phase. Mouse anti-human IgG, Fc fragment-specific (Celltech) was immobilised on flowcell 2 of a CM5 Sensor Chip via amine coupling chemistry to a level of 12757RU. A blocked reference surface was prepared on flowcell 1 by activation with EDC/NHS and deactivation with ethanolamine using the same volumes as for flowcell 2. HBS-EP buffer (10 mM HEPES pH 7.4, 0.15 M NaCl, 3 mM EDTA, 0.005% Surfactant P20, Biacore AB) was used as the running buffer and assays were performed at 25° C. Anti-IL-1β antibody was passed over flowcells 1 and 2 and captured on the immobilised anti-hFc surface using a flowrate of 10 μl/min. IL-1β from 400-0 nM was injected over the blocked and captured anti-IL-1β antibody surface using a flowrate of 30 μl/min for 3 min. The anti-hFc surface was regenerated with a 30 μl injection of 40 mM HCl. Kinetic parameters were calculated using BIAevaluation 3.1 software.

recombinant human IL-1β [3] = target: T1, recombinant human IL-1β; test: BIAcore, Fab′ captured by anti-hF(ab′)2, IL-1β titrated in solution, 25 °C
Protocol: Affinipure goat anti-human IgG, F(ab′)₂ fragment-specific (Jackson ImmunoResearch Code 109-005-097) was immobilised on flowcell 2 of a CM5 Sensor Chip via amine coupling chemistry to a level of 13025RU. A blocked reference surface was prepared on flowcell 1 by activation with EDC/NHS and deactivation with ethanolaomine using the same volumes as for flowcell 2. HBS-EP buffer (10 mM HEPES pH 7.4, 0.15 M NaCl, 3 mM EDTA, 0.005% Surfactant P20, Biacore AB) was used as the running buffer and assays were performed at 25° C. Anti-IL-1β antibody was passed over flowcells 1 and 2 and captured on the immobilised anti-hF(ab′)₂ surface using a flowrate of 10 μl/min. IL-1β (Strathmann) from 400-0 nM was injected over the blocked and captured anti-IL-1β antibody surface using a flowrate of 30 μl/min for 3 min. The anti-hF(ab′)₂ surface was regenerated with a 30 μl injection of 40 mM HCl followed by a 15 μl injection of 5 mM NaOH. Kinetic parameters were calculated using BIAevalutation 3.1 software.

| Binder | Kd (recombinant human IL-1β [2]) | other results |
| --- | --- | --- |
| B1 | – | Kd (recombinant human IL-1β [1]): 0.3 nM |
| B2 | 0.34 nM | – |
| B3 | 0.35 nM | – |
| B4 | 0.3 nM | – |
| B5 | 1.27 nM | – |
| B6 | 1.14 nM and 1.07 nM | – |
| B7 | 0.28 nM | – |
| B8 | 0.32 nM | – |
| B9 | 0.28 nM | – |
| B10 | – | Kd (recombinant human IL-1β [3]): 0.32 nM |
| B11 | 0.38 nM | – |
